Patent US20250361297A1 (ADAPTAM THERAPEUTICS S L, published 2025)

Legend:
recombinant CD3 = recombinant CD3 (UniProt P07766 23-126; P09693 23-116); assay: antibody as ligand, 'Human CD3 epsilon&CD3 gamma' as analyte; legend paragraph 116 says BLI, methods paragraph 422 say Biacore SPR, table in RU
CD3 on Jurkat cells = target: T1, CD3 on Jurkat cells (UniProt P07766 23-207); assay: flow cytometry, Jurkat cells expressing CD3, gMFI
T1 construct: whole, on cells; Whole CD3 complex on cells; also called CD3-expressing Jurkat cells; Jurkat cells expressing CD3

[1] = target: T2, recombinant cynomolgus Siglec-15-his protein (Bonopusbio, CW70-50 ug) (cynomolgus monkey, UniProt Q6ZMC9 20-259 (human entry)); assay: ELISA, plate coated with recombinant cynomolgus Siglec-15-his, antibody titrated up to about 200 nM, OD 450 nm
T2 construct: whole entry named; also called cynomolgous Siglec-15
T2 chain: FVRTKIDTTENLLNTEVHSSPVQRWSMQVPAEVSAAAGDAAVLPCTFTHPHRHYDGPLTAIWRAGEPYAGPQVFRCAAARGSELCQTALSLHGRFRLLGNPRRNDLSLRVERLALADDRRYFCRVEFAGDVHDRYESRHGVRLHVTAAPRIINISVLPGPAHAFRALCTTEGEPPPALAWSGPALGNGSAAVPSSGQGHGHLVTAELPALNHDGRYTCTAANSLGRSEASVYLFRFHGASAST

[2] = target: T3, recombinant human Siglec-15-his protein (Bonopusbio) (human, UniProt Q6ZMC9 20-263); assay: SPR (Biacore T200), antibody on CM5 chip, Siglec-15-his as analyte
T3 construct: Bought (CW37-50 ug in the ELISA; the SPR paragraph prints CW70-50 ug); whole entry named; also called recombinant human Siglec-15 protein
T3 sequence: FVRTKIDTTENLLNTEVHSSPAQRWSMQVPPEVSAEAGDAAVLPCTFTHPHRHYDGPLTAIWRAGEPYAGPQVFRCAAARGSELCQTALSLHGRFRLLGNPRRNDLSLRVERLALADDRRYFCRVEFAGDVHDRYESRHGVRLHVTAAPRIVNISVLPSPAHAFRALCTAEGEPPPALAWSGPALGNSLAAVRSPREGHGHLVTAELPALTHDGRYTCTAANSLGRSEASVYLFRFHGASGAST

[3] = target: T4, truncated human Siglec-15 comprising only domain 2 (D2), expressed on HEK293T cells (human, UniProt Q6ZMC9 168-251, limits assumed); assay: flow cytometry on HEK 293T cells expressing only D2; compared to antibody clone A2A5C7E8
T4 construct: also called domain 2-only human Siglec-15; Siglec-15 Domain 2 (D2) HEK293T cells
T4 sequence: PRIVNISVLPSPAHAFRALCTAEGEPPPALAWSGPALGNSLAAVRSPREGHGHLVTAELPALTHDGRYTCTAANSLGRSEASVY

[4] = target: T5, human Siglec-15, full length, expressed on cells (human, UniProt Q6ZMC9 20-328); assay: flow cytometry, HEK293T cells expressing human Siglec-15, anti-human IgG-PE, MFI
T5 construct: also called hS15; MOLM-13 Siglec-15 expressing cells
T5 sequence: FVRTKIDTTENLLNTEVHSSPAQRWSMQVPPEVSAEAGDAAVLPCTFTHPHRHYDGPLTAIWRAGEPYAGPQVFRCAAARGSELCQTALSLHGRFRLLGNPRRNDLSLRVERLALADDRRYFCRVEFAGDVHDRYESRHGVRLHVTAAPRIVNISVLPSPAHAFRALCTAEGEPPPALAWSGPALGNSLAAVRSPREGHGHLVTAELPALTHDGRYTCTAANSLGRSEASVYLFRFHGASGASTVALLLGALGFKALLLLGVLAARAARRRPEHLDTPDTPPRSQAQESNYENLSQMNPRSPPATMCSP

[5] = target: T6, recombinant Siglec-15 (bispecific antibody affinity assay) (Homo sapiens (Human), UniProt Q6ZMC9 20-263, limits assumed); assay: antibody as ligand, human Siglec15 as analyte; legend paragraph 114 says BLI, methods paragraph 422 say Biacore SPR, table in RU
T6 sequence: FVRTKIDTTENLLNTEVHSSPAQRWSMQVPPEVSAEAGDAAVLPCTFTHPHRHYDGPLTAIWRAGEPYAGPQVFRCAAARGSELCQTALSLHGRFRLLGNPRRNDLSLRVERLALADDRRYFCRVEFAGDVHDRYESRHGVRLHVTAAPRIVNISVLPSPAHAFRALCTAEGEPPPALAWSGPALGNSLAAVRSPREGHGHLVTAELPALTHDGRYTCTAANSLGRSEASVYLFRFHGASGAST

[6] = target: T3, recombinant human Siglec-15-his protein …; assay: ELISA, plate coated with 100 ng per well recombinant human Siglec-15 (supplier not named in Example 3), HRP anti-mouse IgG, OD450
[7] = target: T5, human Siglec-15, full length, expressed …; assay: flow cytometry, THP-1 cells overexpressing human Siglec-15, ADC titrated, anti-human IgG-PE, gMFI
[8] = target: T5, human Siglec-15, full length, expressed …; assay: as above; remark: listed apart in the source
[9] = target: T5, human Siglec-15, full length, expressed …; assay: as above; remark: listed apart in the source
[10] = target: T4, truncated human Siglec-15 comprising …; assay: flow cytometry on HEK293T cells expressing domain 2 only (FIG. 16)
[11] = target: T7, mouse Siglec-15, full length, expressed on HEK293T cells (mouse); assay: IgG1 titration, flow cytometry on HEK293T cells expressing mouse Siglec-15
T7 construct: also called mS15; HEK293T cells expressing mouse Siglec-15
T7 chain: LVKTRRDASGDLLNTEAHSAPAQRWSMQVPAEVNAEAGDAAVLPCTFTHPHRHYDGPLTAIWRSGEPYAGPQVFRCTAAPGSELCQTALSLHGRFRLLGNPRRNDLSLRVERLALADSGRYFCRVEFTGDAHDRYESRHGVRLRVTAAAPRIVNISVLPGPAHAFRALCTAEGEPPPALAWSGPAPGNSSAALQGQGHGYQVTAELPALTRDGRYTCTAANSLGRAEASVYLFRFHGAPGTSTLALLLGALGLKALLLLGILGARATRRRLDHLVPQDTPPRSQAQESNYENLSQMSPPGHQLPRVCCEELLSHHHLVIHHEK

[12] = target: T5, human Siglec-15, full length, expressed …; assay: IgG1 titration, flow cytometry on MOLM-13 human Siglec-15 cells

Sequence of recombinant CD3 (P07766 23-126, form in doubt, chain 1 of 2): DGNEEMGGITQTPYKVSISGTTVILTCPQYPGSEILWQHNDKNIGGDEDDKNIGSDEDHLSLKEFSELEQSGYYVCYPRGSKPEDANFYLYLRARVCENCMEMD
Sequence of recombinant CD3 (P09693 23-116, form in doubt, chain 2 of 2): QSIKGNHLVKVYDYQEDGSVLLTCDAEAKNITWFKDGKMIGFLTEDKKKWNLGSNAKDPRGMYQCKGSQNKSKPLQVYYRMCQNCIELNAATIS
T1 sequence (P07766 23-207): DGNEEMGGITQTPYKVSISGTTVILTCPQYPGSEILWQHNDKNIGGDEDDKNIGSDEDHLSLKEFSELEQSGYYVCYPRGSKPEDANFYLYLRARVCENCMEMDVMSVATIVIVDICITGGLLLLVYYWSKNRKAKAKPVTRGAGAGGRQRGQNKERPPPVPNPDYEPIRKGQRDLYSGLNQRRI

B1: parental anti-CD3 antibody (humanized SP34 CD3 antibody) (antibody, V domains shown)
VH: EVQLVESGGGLVKPGGSLRLSCAASGFTFNTYAMNWVRQAPGKGLEWVARIRSKYNNYATYYADSVKDRFTISRDDSKNTLYLQMNSLKTEDTAVYYCVRHGNFGNSYVSWFAYWGQGTLVTVSS
VL: QTVVTQEPSFSVSPGGTVTLTCRSSTGAVTTSNYANWVQQTPGQAPRGLIGGTNKRAPGVPARFSGSILGNKAALTITGAQADDEAEYFCALWYSNLWVFGGGTKLTVL
notes: also called anti-human CD3 humanized antibody; anti-CD3 mAb
- Kd (recombinant CD3): 67.1 nM
- koff (recombinant CD3): 0.00713 s⁻¹
- kon (recombinant CD3): 106000 M⁻¹ s⁻¹
- EC50 (read off the curve) (CD3 on Jurkat cells): ~0.2 nM

B2: S15B1 (antibody, V domains shown)
VH: QVQLQQSGPELVKPGASVKISCKASGYAFSSSWMNWVKQRPGKGLEWIGRIYPGHGETNYNGKFKDKATVTADKSSSTTYMQLSSLTSEDSAVYFCARVDNSDPYYFDYWGQGTTLTVSS
VL: DIVLTQSPASLAVSLGQRATISCRASKSVSTSGYSYMHWYQQKPGQPPKLLIYLASNLESGVPARFSGSGSGTDFTLNIHPVEEEDAATYYCQHGRELPFTFGSGTKLEIK
notes: Mouse hybridoma monoclonal antibody ('parental mouse S15B1'); also called clone S15B1; S15B1-VH + VL (Parental)
- EC50 (read off the curve) [1]: ~0.6 nM
- Kd [2]: 0.0522 nM
- koff [2]: 0.000233 s⁻¹
- kon [2]: 4.46e+06 M⁻¹ s⁻¹
- fold increase in antibody-positive cells [3]: ~4 fold
- EC50 (read off the curve) [4]: ~0.5 nM
- Kd [5]: 0.0497 nM
- koff [5]: 0.000154 s⁻¹
- kon [5]: 3.11e+06 M⁻¹ s⁻¹
- EC50 (read off the curve) [6]: ~0.2 µg/mL

B3: S15B1-MMAE ADC (other)
VH: QVQLQQSGPELVKPGASVKISCKASGYAFSSSWMNWVKQRPGKGLEWIGRIYPGHGETNYNGKFKDKATVTADKSSSTTYMQLSSLTSEDSAVYFCARVDNSDPYYFDYWGQGTTLTVSS
VL: DIVLTQSPASLAVSLGQRATISCRASKSVSTSGYSYMHWYQQKPGQPPKLLIYLASNLESGVPARFSGSGSGTDFTLNIHPVEEEDAATYYCQHGRELPFTFGSGTKLEIK
modifications: vc-MMAE payload linker conjugated to the antibody; residue not stated
notes: Antibody-drug conjugate; also called S15B1-based antibody-drug conjugate with MMAE
- EC50 (read off the curve) [7]: ~8 nM

B4: S15B1-Exatecan ADC (other)
VH: QVQLQQSGPELVKPGASVKISCKASGYAFSSSWMNWVKQRPGKGLEWIGRIYPGHGETNYNGKFKDKATVTADKSSSTTYMQLSSLTSEDSAVYFCARVDNSDPYYFDYWGQGTTLTVSS
VL: DIVLTQSPASLAVSLGQRATISCRASKSVSTSGYSYMHWYQQKPGQPPKLLIYLASNLESGVPARFSGSGSGTDFTLNIHPVEEEDAATYYCQHGRELPFTFGSGTKLEIK
modifications: MC-GGFG-Exatecan payload linker conjugated to the antibody; residue not stated
notes: Antibody-drug conjugate; also called S15B1-based antibody-drug conjugate with Exatecan
- EC50 (read off the curve) [8]: ~6 nM

B5: ZLA-1243-E01-MMAE (other)
VH: QVQLVQSGGGLVQPGRSLRLSCAASGFTFDDYAMHWVRQAPGKGLEWVSGISWNSGSIGYADSVKGRFTISRDNAKNSLYLQMNSLRAEDTALYYCAKGLWPSYDLDAFDIWGQGTMVTVSS
VL: QSALTQPASVSGSPGQSITLSCTGTSSDVGAYNFVSWYQQHPGTAPKLMIYEVSNRPSGVSDRFSGSKSGNTASLTISGLQAEDEADYYCSSYTSTIPPFVFGTGTKVTVL
modifications: vc-MMAE payload linker conjugated to the antibody; residue not stated
- EC50 (read off the curve) [9]: ~3 nM

B6: ZLA-1214-H05 (antibody, V domains shown)
VH: QVQLVQSGAEVKKPGASVKVSCKASGYTFTSYGISWVRQAPGQGLEWMGWISAYNGNTNYAQKLQGRVTMTTDTSTSTAYMELRSLRSDDTAVYYCARMSGYYGMDVWGQGTLVTVSS
VL: DIQLTQSPSSLSASVGDRVTITCQASQGISNYLNWYQQKPGKAPKLLIYDASNLETGVPSRFSGSGSGTDFTFTISSLQPEDIATYYCQQYDNLPLTFGGGTKLEIK
notes: Fully human, from phage display
- binding result [10]: no binding
- EC50 [11]: 0.561 µg/mL
- EC50 [12]: 0.593 µg/mL

B7: BsAb-1 (bispecific antibody, human IgG1, kappa, lambda, L234A L235A)
light 1: not shown
heavy 1: QVQLQQSGPELVKPGASVKISCKASGYAFSSSWMNWVKQRPGKGLEWIGRIYPGHGETNYNGKFKDKATVTADKSSSTTYMQLSSLTSEDSAVYFCARVDNSDPYYFDYWGQGTTLTVSSASTKGPSVFPLAPSSKSTSGGTAALGCLVKDYFPEPVTVSWNSGALTSGVHTFPAVLQSSGLYSLSSVVTVPSSSLGTQTYICNVNHKPSNTKVDKKVEPKSCDKTHTCPPCPAPEAAGGPSVFLFPPKPKDTLMISRTPEVTCVVVDVSHEDPEVKFNWYVDGVEVHNAKTKPREEQYNSTYRVVSVLTVLHQDWLNGKEYKCKVSNKALPAPIEKTISKAKGQPREPQVCTLPPSRDELTKNQVSLSCAVKGFYPSDIAVEWESNGQPENNYKTTPPVLDSDGSFFLVSKLTVDKSRWQQGNVFSCSVMHEALHNHYTQKSLSLSPGK
heavy 2: not shown
light 2: QTVVTQEPSFSVSPGGTVTLTCRSSTGAVTTSNYANWVQQTPGQAPRGLIGGTNKRAPGVPARFSGSILGNKAALTITGAQADDEAEYFCALWYSNLWVFGGGTKLTVLASTKGPSVFPLAPSSKSTSGGTAALGCLVKDYFPEPVTVSWNSGALTSGVHTFPAVLQSSGLYSLSSVVTVPSSSLGTQTYICNVNHKPSNTKVDKKVEPKSC
notes: S15B1 arm and humanized SP34 anti-CD3 arm; also called anti-Siglec-15/CD3 bispecific antibody, Format-1: KIH & CrossmAb
- Kd (recombinant CD3): 115 nM
- koff (recombinant CD3): 0.011 s⁻¹
- kon (recombinant CD3): 95800 M⁻¹ s⁻¹
- Kd [5]: 0.0865 nM
- koff [5]: 0.00025 s⁻¹
- kon [5]: 2.89e+06 M⁻¹ s⁻¹
- EC50 (read off the curve) (CD3 on Jurkat cells): ~4 nM
